From patent publication US20210261648A1 (published 2021)
Substitutions are numbered along the chain they refer to.

T1: FcγRIIa type R (human, UniProt P12318 34-217)
T1 chain: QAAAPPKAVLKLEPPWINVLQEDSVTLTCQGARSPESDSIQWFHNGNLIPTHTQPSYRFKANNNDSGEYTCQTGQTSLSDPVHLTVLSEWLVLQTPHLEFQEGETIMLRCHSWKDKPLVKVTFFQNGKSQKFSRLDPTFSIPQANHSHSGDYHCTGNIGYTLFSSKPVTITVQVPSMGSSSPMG

T2: FcγRIIb (human, UniProt P31994 43-217)
T2 construct: extracellular domain; also called FcgRIIb; CD32B
T2 sequence (looked up): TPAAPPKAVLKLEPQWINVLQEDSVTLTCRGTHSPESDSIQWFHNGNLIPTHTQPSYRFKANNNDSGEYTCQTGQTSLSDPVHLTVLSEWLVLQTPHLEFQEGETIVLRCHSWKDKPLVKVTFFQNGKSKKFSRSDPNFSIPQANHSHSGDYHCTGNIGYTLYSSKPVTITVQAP

T3: FcγRIIb extracellular domain with C-terminal His tag (human, UniProt P31994 43-217)
T3 construct: extracellular domain; also called FcgRIIb
T3 sequence (looked up): T2 sequence (looked up)

T4: FcγRIIa type H extracellular domain with C-terminal His tag (human, UniProt P12318 34-217)
T4 construct: extracellular domain; also called FcgRIIaH; FcγRIIa H
T4 sequence (looked up): T1 chain with R134H

B1: IL6R-BP559/IL6R-L (antibody, human IgG1, kappa)
heavy: QVQLQESGPGLVKPSETLSLTCAVSGHSISHDHAWSWVRQPPGEGLEWIGFISYSGITNYNPSLQGRVTISRDNSKNTLYLQMNSLRAEDTAVYYCARSLARTTAMDYWGEGTLVTVSSASTKGPSVFPLAPSSKSTSGGTAALGCLVKDYFPEPVTVSWNSGALTSGVHTFPAVLQSSGLYSLSSVVTVPSSSLGTQTYICNVNHKPSNTKVDKKVEPKSCDKTHTCPPCPAPELLGGDSVFLFPPKPKDTLMISRTPEVTCVVIDVAEEDGDVKFNWYVDGVEVHNAKTKPREEQDNSTYRVVSVLTVLHQDWLNGKEYKCKVSNKALPAPIEKTISKAKGQPREPQVYTLPPSRDELTKNQVSLTCLVKGFYPSDIAVEWESNGQPENNYKTTPPVLDSDGSFFLYSKLTVDKSRWQQGNVFSCSVMHEALHNHYTQESLSLSP
light: not shown
notes: Alterations in EU numbering, introduced into IL6R-B3
B2: IL6R-BP508/IL6R-L (antibody, human IgG1, kappa)
heavy: B1 heavy with E235D, G239D, D274P
light: not shown
notes: as for B1
B3: IL6R-BP509/IL6R-L (antibody, human IgG1, kappa)
heavy: B1 heavy with E235D, G239D
light: not shown
notes: as for B1
B4: IL6R-BP549/IL6R-L (antibody, human IgG1, kappa)
heavy: B1 heavy with G239D, I266V, A269G, D274E, D298Y, A332R
light: not shown
notes: as for B1
B5: IL6R-BP084/IL6R-L (antibody, human IgG1, kappa)
heavy: B1 heavy with I266V, A269S, E270H, G273P, D274E, D298Y, V325M, A332K
light: not shown
B6: IL6R-BP131/IL6R-L (antibody, human IgG1, kappa)
heavy: B1 heavy with E235D, G239D, I266V, A269S, E270H, G273P, D274E, D298Y, A332K
light: not shown
B7: IL6R-BP196/IL6R-L (antibody, human IgG1, kappa)
heavy: B1 heavy with L236Y, I266V, A269S, E270D, D274E, D298Y, K328A, A332K
light: not shown
B8: IL6R-BP179/IL6R-L (antibody, human IgG1, kappa)
heavy: B1 heavy with G239D, I266V, A269S, E270H, D274E, D298Y, K328A, A332K
light: not shown
B9: IL6R-BP183/IL6R-L (antibody, human IgG1, kappa)
heavy: B1 heavy with E235D, L236Y, I266V, A269S, E270H, D274E, D298Y, K328A, A332K
light: not shown
B10: IL6R-BP197/IL6R-L (antibody, human IgG1, kappa)
heavy: B1 heavy with E235D, L236Y, G239D, I266V, A269S, E270D, D274E, K328D, A332K
light: not shown
B11: IL6R-BP190/IL6R-L (antibody, human IgG1, kappa)
heavy: B1 heavy with G239D, I266V, A269S, E270D, D274E, D298Y, A332K
light: not shown
B12: IL6R-BP200/IL6R-L (antibody, human IgG1, kappa)
heavy: B1 heavy with E235D, L236Y, G239D, I266V, A269S, E270H, D274E, D298Y, K328D, A332R
light: not shown
B13: IL6R-BP130/IL6R-L (antibody, human IgG1, kappa)
heavy: B1 heavy with E235D, I266V, A269S, E270H, G273P, D274E, D298Y, V325M, A332K
light: not shown
B14: IL6R-BP186/IL6R-L (antibody, human IgG1, kappa)
heavy: B1 heavy with E235D, L236Y, G239D, I266V, A269S, E270H, D274E, K328A, A332K
light: not shown
B15: IL6R-BP151/IL6R-L (antibody, human IgG1, kappa)
heavy: QVQLQESGPGLVKPSETLSLTCAVSGHSISHDHAWSWVRQPPGEGLEWIGFISYSGITNYNPSLQGRVTISRDNSKNTLYLQMNSLRAEDTAVYYCARSLARTTAMDYWGEGTLVTVSSASTKGPSVFPLAPSSKSTSGGTAALGCLVKDYFPEPVTVSWNSGALTSGVHTFPAVLQSSGLYSLSSVVTVPSSSLGTQTYICNVNHKPSNTKVDKKVEPKSCDKTHTCPPCPAPDYLGDDSVFLFPPKPKDTLMISRTPEVTCVVVDVSHEDPEVKFNWYVDGVEVHNAKTKPREEQYNSTYRVVSVLTVLHQDWLNGKEYKCKVSNAALPRPIEKTISKAKGQPREPQVYTLPPSRDELTKNQVSLTCLVKGFYPSDIAVEWESNGQPENNYKTTPPVLDSDGSFFLYSKLTVDKSRWQQGNVFSCSVMHEALHNHYTQESLSLSP
light: not shown
B16: IL6R-BP089/IL6R-L (antibody, human IgG1, kappa)
heavy: B15 heavy with D235E, D239G, R332K
light: not shown

Molecular target: T1, FcγRIIa type R
Assay: SPR (Biacore), captured antibody, soluble FcγR

| Kd [nM] | Binder |
| --- | --- |
| 1600 | B1 |
| 540 | B2 |
| 520 | B3 |
| 570 | B4 |

molecular target: T5, FcγRIa (human, UniProt P12314 16-292); assay: SPR (Biacore), captured antibody, soluble FcγR
T5 construct: Whole entry named; also called FcgRIa; CD64A
T5 sequence (P12314 16-292): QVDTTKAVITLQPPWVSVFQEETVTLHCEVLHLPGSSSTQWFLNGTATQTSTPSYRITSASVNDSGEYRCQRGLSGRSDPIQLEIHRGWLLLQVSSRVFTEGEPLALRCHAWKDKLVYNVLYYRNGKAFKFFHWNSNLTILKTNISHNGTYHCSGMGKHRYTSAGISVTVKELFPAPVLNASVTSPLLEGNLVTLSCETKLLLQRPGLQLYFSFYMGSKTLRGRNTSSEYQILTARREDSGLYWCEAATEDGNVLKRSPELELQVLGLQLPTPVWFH

| Kd [nM] | Binder |
| --- | --- |
| 1.1 | B1 |
| 1.4 | B2 |
| 1.1 | B3 |
| 18 | B4 |

molecular target: T2, FcγRIIb; assay: SPR (Biacore), captured antibody, soluble FcγR

| Kd [nM] | Binder |
| --- | --- |
| 28 | B1 |
| 21 | B2 |
| 18 | B3 |
| 16 | B4 |

Molecular target: T1, FcγRIIa type R
Assay: SPR (Biacore); parent = IL6R-B3/IL6R-L

| KD(IIaR) of the parent polypeptide/KD(IIaR) of the altered polypeptide [fold] | Binder |
| --- | --- |
| 0.7 | B1 |
| 2 | B2 |
| 2.1 | B3 |
| 1.9 | B4 |

molecular target: T2, FcγRIIb; assay: SPR (Biacore); parent = IL6R-B3/IL6R-L

| KD(IIb) of the parent polypeptide/KD(IIb) of the altered polypeptide [fold] | Binder |
| --- | --- |
| 110 | B1 |
| 149 | B2 |
| 174 | B3 |
| 196 | B4 |

molecular target: T6, FcγRIa extracellular domain with C-terminal His tag (human, UniProt P12314 16-292); assay: SPR, captured antibody, FcgR analyte
T6 construct: also called FcgRIa
T6 sequence (P12314 16-292): as above
Experimental: (§1) Relative binding activities were calculated for the results of analyzing interactions with the respective FcγRs according to the following method.

| relative binding activity | Binder |
| --- | --- |
| 109 relative (IL6R-BF648/IL6R-L = 100) | B5 |
| 33 relative (IL6R-BF648/IL6R-L = 100) | B6 |
| 89 relative (IL6R-BF648/IL6R-L = 100) | B7 |
| 39 relative (IL6R-BF648/IL6R-L = 100) | B8 |
| 83 relative (IL6R-BF648/IL6R-L = 100) | B9 |
| 71 relative (IL6R-BF648/IL6R-L = 100) | B10 |
| 50 relative (IL6R-BF648/IL6R-L = 100) | B11 |
| 60 relative (IL6R-BF648/IL6R-L = 100) | B12 |
| 104 relative (IL6R-BF648/IL6R-L = 100) | B13 |
| 43 relative (IL6R-BF648/IL6R-L = 100) | B14 |
| 39 relative (IL6R-BF648/IL6R-L = 100) | B15 |
| 43 relative (IL6R-BF648/IL6R-L = 100) | B16 |

molecular target: T3, FcγRIIb extracellular domain with …; assay: SPR, captured antibody, FcgR analyte
Experimental: as §1

| relative binding activity | Binder |
| --- | --- |
| 141 relative (IL6R-BF648/IL6R-L = 100) | B5 |
| 157 relative (IL6R-BF648/IL6R-L = 100) | B7 |
| 177 relative (IL6R-BF648/IL6R-L = 100) | B8 |
| 164 relative (IL6R-BF648/IL6R-L = 100) | B9 |
| 179 relative (IL6R-BF648/IL6R-L = 100) | B10 |
| 188 relative (IL6R-BF648/IL6R-L = 100) | B12 |
| 175 relative (IL6R-BF648/IL6R-L = 100) | B14 |
| 147 relative (IL6R-BF648/IL6R-L = 100) | B16 |

molecular target: T4, FcγRIIa type H extracellular domain …; assay: SPR, captured antibody, FcgR analyte
Experimental: as §1

| relative binding activity | Binder |
| --- | --- |
| 162 relative (IL6R-BF648/IL6R-L = 100) | B5 |
| 253 relative (IL6R-BF648/IL6R-L = 100) | B6 |
| 195 relative (IL6R-BF648/IL6R-L = 100) | B7 |
| 226 relative (IL6R-BF648/IL6R-L = 100) | B8 |
| 191 relative (IL6R-BF648/IL6R-L = 100) | B9 |
| 294 relative (IL6R-BF648/IL6R-L = 100) | B10 |
| 224 relative (IL6R-BF648/IL6R-L = 100) | B11 |
| 517 relative (IL6R-BF648/IL6R-L = 100) | B12 |
| 224 relative (IL6R-BF648/IL6R-L = 100) | B13 |
| 368 relative (IL6R-BF648/IL6R-L = 100) | B14 |
| 621 relative (IL6R-BF648/IL6R-L = 100) | B15 |
| 186 relative (IL6R-BF648/IL6R-L = 100) | B16 |
